According to the RNAGym collection of RNA variant scans (doi:10.7554/elife.80360):

B1: HDV Ribozyme (parent)
chain: GGCCGGCAUGGUCCCAGCCUCCUCGCUGGCGCCGGCUGGGCAACAUUCCGAGGGGACCGUCCCCUCGGUAAUGGCGAAUGGGACCCA

Variants of: B1
Assay: self-cleavage, relative activity (ratio to wild type); higher = more cleavage; co-transcriptional

| Variant | self-cleavage |
| --- | --- |
| GGCCGGCCUGGUCCCAGCCUCCUCGCUGGCGCCGGCUGGGCAACUUUCCGAGGGGACCGUCCCCUCGGUAAUGGCGAAUGGGACCCA | 0.429 |
| GGCCGGCAUGGUCCCAGCCUCCUCGCUGGCGCCGGCUGGGCAACAUUUCGAGGGGACCGUCCCCUCGGUAAUGGCGAAUGAGACCCA | 0.308 |
| GGCGGGCAUGGUCCCAGCCUCCUCGCUGGCUCCGGCUGGGCAACAUUCCGAGGGGACCGUCCCCUCGGUAAUGGCGAAUGGGACCCA | 0.0282 |
| GGCCGACAUGGUCCCAGCCUCCUCGCUGGCGCCGGCUGGGCAACAUUCCGAGGGGACCGUCCCCUCGGUCAUGGCGAAUGGGACCCA | 0.527 |
| GGCCGGCAUGGUCCCAGCCUCCUCGCUAGCGCCGGCUGGGCAACAUUCCGAGGGGACCGUCCCCUCGGUGAUGGCGAAUGGGACCCA | 0.032 |
| GGCCGGCAUGGUCCCAGCCGCCUCGCUGGCGCCCGCUGGGCAACAUUCCGAGGGGACCGUCCCCUCGGUAAUGGCGAAUGGGACCCA | 0.138 |
| GGCCGGCAUGGUCCCAGCCUCCUCGCUGGCGCCGGCUGGACAACAUUCCGAGGGGACCGUCCCCUCCGUAAUGGCGAAUGGGACCCA | 0.992 |
| GGCCGGCCUGGUCCCAGCCUCCUCGCUGGCGCCGGCUGGGCAACAUUCCGAGGGGACCAUCCCCUCGGUAAUGGCGAAUGGGACCCA | 1.07 |
| GGCCGGCAUGGUCCCAGCCUCCUCGCUGGCGCCGGCCGGGCAACAUUCCGAGGGGACCGUCCCCUCGGUAGUGGCGAAUGGGACCCA | 0.751 |
| GGCCGGCAUGGUCCCAGCCUCCUCGCUGGCGCCGGAUGGGCAACAUUCCGAGGGGACCGUCCCCUUGGUAAUGGCGAAUGGGACCCA | 0.134 |
| GGCCGGCAUGGUCCCAGCCUCCUCGAUGGCGCAGGCUGGGCAACAUUCCGAGGGGACCGUCCCCUCGGUAAUGGCGAAUGGGACCCA | 0.161 |
| GGCCGGCAGGGUCCCAGACUCCUCGCUGGCGCCGGCUGGGCAACAUUCCGAGGGGACCGUCCCCUCGGUAAUGGCGAAUGGGACCCA | 0.0923 |
| GGCCGGCAUGGUCCCAGCCUCCUCGCUGGCGCCGGCUGGGCAACAUUCCGAGGGGACCGUCCCCCCGGUAAUGGCCAAUGGGACCCA | 1.09 |
| GGCCGGCAUGGUCCCAGCCUCCUCGCUGGCGCCGGCUGGGCAACAUUCCGAGGGGACCGUACCCUCGGUAAUGUCGAAUGGGACCCA | 0.63 |
| GGCCGGCAUGGUCCCAGCCUCCUCGCUGGCGCCGGCUGGGCAACAUUCCGAGGGGACCGUCCCCUGGGUAAUGGCGAGUGGGACCCA | 0.875 |
| GGCCGGCAUGGUCCCAGCCUCCUCGCUGGCGCCGGUCGGGCAACAUUCCGAGGGGACCGUCCCCUCGGUAAUGGCGAAUGGGACCCA | 0.867 |
| GGCCGGCAUGGUCCCAGCGUCCUCGCUGGCGCCGGCUGGGCAACAUUCCGAGGGGACCGUCCCCUCGGUAAUGGCGAAUGAGACCCA | 0.117 |
| GGCCGGCAUGGUCCCAGCCUCCUCGCUGGCGCCGGCUGGGCAACAUUCCGAGGGGACUGUCCCCUCGGUAAUGGCGAAUGGGACCGA | 0.895 |
| GGCCGGAAUGGUCCCAGCCUCCCCGCUGGCGCCGGCUGGGCAACAUUCCGAGGGGACCGUCCCCUCGGUAAUGGCGAAUGGGACCCA | 0.935 |
| GGCCGGCAUGGUCCCAGCCUCCUCGCUGGCGCCGGCUGGGCAACAUUCCGAGGGGACUGUCCCCUCGGUAAGGGCGAAUGGGACCCA | 0.431 |
| GGCCGGCAUGGUCCCAGCCUCCUCGUUGGCGCCGGCUGGGCAACAUUCCGAGGGGACCGUGCCCUCGGUAAUGGCGAAUGGGACCCA | 1.19 |
| GUCCGGCUUGGUCCCAGCCUCCUCGCUGGCGCCGGCUGGGCAACAUUCCGAGGGGACCGUCCCCUCGGUAAUGGCGAAUGGGACCCA | 0.134 |

| Variant | self-cleavage |
| --- | --- |
| GGCCGGCAUGGUCCCAGCGUCCUCGCUGGCGCCGGCUGGGAAACAUUCCGAGGGGACCGUCCCCUCGGUAAUGGCGAAUGGGACCCA | 0.157 |
| GGCCGGAAUGGUCCCAGCCUCCUCGCUGGCGCCGGCUGGGCAACAUUCCGAGGGGACCGUCCCCUCGGUAAUGGCGAAUGGGAACCA | 0.519 |
| GGCCGGCAUGAUCCCAGCCUCCUCGCUGGCGCCGGCUGGGCAACAUUCCGAGGGGACCGUCCUCUCGGUAAUGGCGAAUGGGACCCA | 0.376 |
| GGCCGGCAUGGUCCCAGCCUCCUCGCUGGCGCCGGCUGGGCAACAUUCCGAGGGGACCGUCCACUCGGUAAUGGCCAAUGGGACCCA | 0.976 |
| GGCCGGCAUGGUCCCAGCCUCCUCGCUGGCGCCGGCUGGGCAACAUGCCGAGGGGACCGUCCCCUCGGUAAUGGCAAAUGGGACCCA | 1.25 |
| GGCCGGCAUGGUCCCAGCCUCCUGGCUAGCGCCGGCUGGGCAACAUUCCGAGGGGACCGUCCCCUCGGUAAUGGCGAAUGGGACCCA | 0.148 |
| GGCCGGCAUGGUCCCAGCCUCCUCGCUGGCGCCGGCUGGGCAACAUUCCGAGGGGACCGUCCCCUCGGUAAUAGCGAAUGGGACCCG | 0.697 |
| GGCCGGCAUGGUCUCAGCCUCCUCGCGGGCGCCGGCUGGGCAACAUUCCGAGGGGACCGUCCCCUCGGUAAUGGCGAAUGGGACCCA | 1.11 |
| GGCCGGCAUGGUCCCAGCCUCCUCCCUGGCGCCGGCUGGGCAACUUUCCGAGGGGACCGUCCCCUCGGUAAUGGCGAAUGGGACCCA | 0.128 |
| GGCCGGCAUGGUCCCAGCCUCCUCCCUGGCGCCGGCUGGGCAACAUUCCGAGGGGACCGUCCCCUAGGUAAUGGCGAAUGGGACCCA | 0.0627 |
| GGCCGGCAUGCUCCCAGCCUCCUGGCUGGCGCCGGCUGGGCAACAUUCCGAGGGGACCGUCCCCUCGGUAAUGGCGAAUGGGACCCA | 0.0583 |
| GGCCGGCAUGGUCCCAGCCGCCUCGCUGGCGCCGGCUGGGCAACAUUCCGAGGGGACAGUCCCCUCGGUAAUGGCGAAUGGGACCCA | 0.266 |
| GGCCGGCAUGGUCCCAGCCUCCUCGCCGGCGCCGGCUGGGCAACAUUCCGAGGGGACCGUCCCCUCGGUAAUGGCGCAUGGGACCCA | 0.192 |
| GGCCGGCAUGGUCCCAGCCUCCUCGCUGGCGCCAGCUGGACAACAUUCCGAGGGGACCGUCCCCUCGGUAAUGGCGAAUGGGACCCA | 0.181 |
| GGCAGGCAUGGUCCCAGCCUCCUCGCUGGCGCCGGCUGGGCAACAUUCCGAGGGGACCGUCCCCUCGGUAAUGGCGAAUGGGCCCCA | 0.232 |
| GGCCGGCAUGGUCCCAGCCUCCUCGCUGGCGCCAGCUGGGCGACAUUCCGAGGGGACCGUCCCCUCGGUAAUGGCGAAUGGGACCCA | 0.178 |
| GGCCGGCAUGGUCCCAGCCUCCUCGCUGGCGCCGGCUGUGCAUCAUUCCGAGGGGACCGUCCCCUCGGUAAUGGCGAAUGGGACCCA | 0.148 |
| GGCCGGCAUGGUCCCAGCCACCUCUCUGGCGCCGGCUGGGCAACAUUCCGAGGGGACCGUCCCCUCGGUAAUGGCGAAUGGGACCCA | 0.119 |
| CGCCGGCAUGGUCCCAGCCUCCUCGCUGGCGCCGGCUGGGCAACAUUCCGAGGGGACCGUCCCGUCGGUAAUGGCGAAUGGGACCCA | 0.244 |
| GGCCGGCAUGGUCCCAGCCUCCUCGCUGGCGCCGGCUGGGCAACAUUCCGGGGGGACCGUCCCCUCCGUAAUGGCGAAUGGGACCCA | 0.864 |
| GGCCGGCAUGGUACCAGCCUCAUCGCUGGCGCCGGCUGGGCAACAUUCCGAGGGGACCGUCCCCUCGGUAAUGGCGAAUGGGACCCA | 0.0287 |
| GGCCGGCAUGGUCCCAGCCUCCUCGCUGGCGCCGGCUGGGCAACAUUCCGAGGGGACCGUCCCCUCUGUAAUAGCGAAUGGGACCCA | 0.451 |

| Variant | self-cleavage |
| --- | --- |
| GGCCGGCAUGGUCCCAGCCUCCUCGCUGGCGCCAUCUGGGCAACAUUCCGAGGGGACCGUCCCCUCGGUAAUGGCGAAUGGGACCCA | 0.113 |
| GGCCGGCAUGGACCCAGCCUCCUCGCUGGCGCCGGCUGGGCAACAUUCCGAGGGGACCGUCCCCUCGGUAAGGGCGAAUGGGACCCA | 0.185 |
| GGCCGGCAUGGUCCCAGCCUCCUCGCUGGCGCCGGCUGGGCAACAUUCCGAGGGGACCGUCCCCUCGGUCAUGGCGAAUGGGAUCCA | 0.594 |
| GGCCGGCAUGGUCCCAGCCUCCUCGCUGGCGCCGGCUGGGCAACAUUAGGAGGGGACCGUCCCCUCGGUAAUGGCGAAUGGGACCCA | 1.01 |
| GGCCGGCAUGGUCCCAGCCUCCUCGCUGGCGCCGGCUGCGCAACAUUCCGGGGGGACCGUCCCCUCGGUAAUGGCGAAUGGGACCCA | 0.38 |
| GGCCGGCAAGGUCCCAGCCUCCUCGCUGGCGCCGGCUGGGCAACAUUCCGAGGGGACCGUCCCCUCGGUAAUGGCGAAUGGGACCCG | 1.13 |
| GGCCGGCAUGGUCCCAGGAUCCUCGCUGGCGCCGGCUGGGCAACAUUCCGAGGGGACCGUCCCCUCGGUAAUGGCGAAUGGGACCCA | 0.119 |
| GGCCGGCAUGGUCCCAGCCUCCUCGCGGGCGCCGGCUGGGCAACAUUCCGAGGGGACCGUCCCCUCGGUAAUGGCGAAUUGGACCCA | 0.224 |
| GACCGGCAUGGUCCCAGCCUCCUCGUUGGCGCCGGCUGGGCAACAUUCCGAGGGGACCGUCCCCUCGGUAAUGGCGAAUGGGACCCA | 0.138 |
| GGCAGGCAUGGUCCUAGCCUCCUCGCUGGCGCCGGCUGGGCAACAUUCCGAGGGGACCGUCCCCUCGGUAAUGGCGAAUGGGACCCA | 0.0378 |
| GGCCGGCAUGGUCCCAGCCUCCUCGCUGGCGUCGGCUGGGCAACAUUCCGAGGGGACCGUCCCCUCGGUAAUGGCGAACGGGACCCA | 0.201 |
| GGCCGGCAUGGUCCCAGCCGCCUAGCUGGCGCCGGCUGGGCAACAUUCCGAGGGGACCGUCCCCUCGGUAAUGGCGAAUGGGACCCA | 0.17 |
| GGCCGGCAUGGUCCCAGCCUCCUCGCUGGCGCCGGCUGGGCAACAUUCCGAGGGGACCGUCACCUCGGUAAUGGCGAAUGGGGCCCA | 0.683 |
| GGCCGGCAUGGUCCCUGCCUCCUCGCUGGCGCCGGCUGGGCAACAUUCGGAGGGGACCGUCCCCUCGGUAAUGGCGAAUGGGACCCA | 0.91 |
| GGCCGGCAUGGUCCCAGCCUCCUCGCUGGCUCCGGCUGGGCAACAUUCCGUGGGGACCGUCCCCUCGGUAAUGGCGAAUGGGACCCA | 0.525 |
| GGCCGGCAUGGUCCCAGCCUCCUCGCUGGCGCCGGCUGGGCAACAUUCCCAGGGGAACGUCCCCUCGGUAAUGGCGAAUGGGACCCA | 1.04 |
| GGCCGGCAUGGUCCCAGCCUCGUCGCUGGCGCCGGCUGGGCAACAUUCCGAGGGGACCGUCCCCUCGGUAAUGGCGAAUGGGACCCC | 0.0866 |
| GGCCGGCAUGGUCCCAGCCUCCUCGCUCGCGCCGGCUGGGCAACAUUCCGAGGGGACCGUCCCCUCGGUAAUCGCGAAUGGGACCCA | 0.148 |
| GGCCGGCAGGGUCCCAGCUUCCUCGCUGGCGCCGGCUGGGCAACAUUCCGAGGGGACCGUCCCCUCGGUAAUGGCGAAUGGGACCCA | 0.119 |
| GGUCGGCAUGGUCCCAGCCUCCUCGCUGGCGCCGGCUGGGCAACAUUCCGAGGGGACCGUCCCCUCGGUAAUGGCGAAUGGGAACCA | 0.665 |
